Source: patent US20240294650A1 (Alector, published 2024)

T1: recombinant cynomolgus MerTK extracellular domain (cynomolgus, UniProt Q12866 21-505 (human entry))
T1 construct: also called cyno MerTK ECD; not shown: polyHis or TEVS/Thrombin/murine IgG2a-Fc tag
T1 chain: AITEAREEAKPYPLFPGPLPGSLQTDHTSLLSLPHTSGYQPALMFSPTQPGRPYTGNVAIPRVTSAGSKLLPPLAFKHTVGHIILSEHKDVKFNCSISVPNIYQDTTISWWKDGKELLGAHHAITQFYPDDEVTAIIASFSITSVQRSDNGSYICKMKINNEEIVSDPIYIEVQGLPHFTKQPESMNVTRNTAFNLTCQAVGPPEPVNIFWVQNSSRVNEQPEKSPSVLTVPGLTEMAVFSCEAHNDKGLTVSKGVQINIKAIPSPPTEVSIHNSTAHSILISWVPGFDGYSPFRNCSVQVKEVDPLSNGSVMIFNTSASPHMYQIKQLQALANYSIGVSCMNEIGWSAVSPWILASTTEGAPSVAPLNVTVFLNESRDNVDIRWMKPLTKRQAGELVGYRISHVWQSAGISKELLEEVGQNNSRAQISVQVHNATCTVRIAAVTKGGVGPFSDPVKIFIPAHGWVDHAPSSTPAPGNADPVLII

T2: His tag-conjugated recombinant ProS (human, UniProt P07225 42-676, limits assumed)
T2 construct: bought; also called Protein S; ProS1 (R&D systems, Cat #9489-PS-100)
T2 sequence (looked up): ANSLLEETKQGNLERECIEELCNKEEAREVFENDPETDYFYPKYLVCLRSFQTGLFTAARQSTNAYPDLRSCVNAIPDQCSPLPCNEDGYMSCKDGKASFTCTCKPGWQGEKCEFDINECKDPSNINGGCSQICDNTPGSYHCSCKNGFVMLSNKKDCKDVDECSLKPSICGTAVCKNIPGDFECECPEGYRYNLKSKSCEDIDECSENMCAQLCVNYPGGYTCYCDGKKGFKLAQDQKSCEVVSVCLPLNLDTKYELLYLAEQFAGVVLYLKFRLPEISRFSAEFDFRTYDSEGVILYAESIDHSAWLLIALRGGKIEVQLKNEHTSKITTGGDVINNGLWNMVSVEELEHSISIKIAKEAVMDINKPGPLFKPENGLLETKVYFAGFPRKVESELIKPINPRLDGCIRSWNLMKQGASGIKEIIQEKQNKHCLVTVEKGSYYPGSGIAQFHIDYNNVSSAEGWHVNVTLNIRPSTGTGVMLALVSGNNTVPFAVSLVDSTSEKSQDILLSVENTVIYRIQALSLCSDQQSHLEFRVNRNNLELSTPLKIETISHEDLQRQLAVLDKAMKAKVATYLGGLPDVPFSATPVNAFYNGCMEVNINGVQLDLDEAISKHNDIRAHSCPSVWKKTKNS

T3: MerTK C-terminal ECD Half-and-half chimera (human)
T3 construct: tested as culture supernatant; also called MerTK C-term half-and-half chimera; MerTK C-terminal ECD (FN1-FN2-JM) + Axl N-terminal ECD (NT-Ig1-Ig2)
T3 chain: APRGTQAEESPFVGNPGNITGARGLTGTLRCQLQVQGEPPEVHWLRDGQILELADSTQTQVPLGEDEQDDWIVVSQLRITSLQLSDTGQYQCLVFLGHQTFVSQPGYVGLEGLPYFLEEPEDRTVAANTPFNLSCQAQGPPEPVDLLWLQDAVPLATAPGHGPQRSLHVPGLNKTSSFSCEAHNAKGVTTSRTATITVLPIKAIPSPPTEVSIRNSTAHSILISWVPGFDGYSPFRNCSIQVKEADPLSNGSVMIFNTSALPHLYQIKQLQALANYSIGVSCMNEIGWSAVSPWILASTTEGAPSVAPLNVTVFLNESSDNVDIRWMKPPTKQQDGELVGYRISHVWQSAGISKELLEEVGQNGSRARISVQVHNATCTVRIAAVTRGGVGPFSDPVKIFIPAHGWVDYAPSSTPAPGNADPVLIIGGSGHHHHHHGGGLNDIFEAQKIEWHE


Biological target: T1, recombinant cynomolgus MerTK …
Test: SPR Carterra LSA, Ab immobilised; LB = low binding (below limit of measurement), KD not determined

| binding result | Binder |
| --- | --- |
| binds | MTK-207 (antibody, human IgG1, V domains shown) VH: QVQLKESGPGLVAPSQSLSITCTVSGISLTSYGVSWVRQPPGKGLEWLGIIWGDGSTNYHSALISRLSISKDNSKSQVFLKLNSLQTDDTATYYCAKGRYGNYEDWYFDVWGTGTTVTVSS VL: DIQMTQSPASLSASVGETVTITCRASGNIHNYLAWYQQKQGKSPQLLVYNAKTLAAGVPSRFSGSGSGTQYSLKINSLQPEDFGSYYCQHFWSIPLTFGAGTKLELK |
| binds | MTK-216 (antibody, human IgG1, V domains shown) VH: EVQLVESGGGLVKPGGSLKLSCAASGFTFSDYGMHWVRQAPEKGLEWVAFISSGSTTIYYADTVKGRFTISRDNAKNTLILQMTSLRSEDTAIYYCTRGGFHLDYWGQGTTLTVSS VL: SIMMTQSPSSLAVSAGEKVTMGCKSSQSVLYSANQQNYLAWYQQKPGQSLKLLIYWASTRESGVPDRFTGSGSGTDFTLTISSVQAEDLAVYYCHQYFSSWTFGGGTKLEIK |

biological target: T2, His tag-conjugated recombinant ProS; test: ELISA, captured Ab, ProS-His 10 ug/ml, no MerTK

| binding result | Binder |
| --- | --- |
| binds | MTK-231 (antibody, human IgG1, V domains shown) VH: DVQLQESGPGLVKPSQSLSLTCSVTGYSITSGYYWNWIRQFPGNKLEWMGYISYDGTYNYHPSLKNRISITRDTSKNQFFLTLNSVTTEDTATFYCTRGGGYWGQGTSVTVSS VL: DVVMTQTPLSLPVSLGDQASISCRSSQSLVHSDGNTYLHWYLQKPGQSPKLLIYKVSNRFSGVPDRFSGSGSGTDFTLKISRLEAEDLGIYFCSQTTHIPLTFGSGTKLEIK |
| binds | MTK-213 (antibody, human IgG1, V domains shown) VH: QVQLQQPGAELVKPGASVKMSCKASGYTFTSYWITWVKQRPGQGHEWIGEIYPGIGSTNYNEKFKSKATLTVDTSSRTAYMQLSSLTSEDSAVYFCARGAYTKYYFDYWGQGTTLTVSS VL: DIVMTQSHKFMSTSVGDRVSITCKASQDVGDAVAWYQQKPGQTPKLLIYWASTRHTGVPDRFTGSGSGTDFTLTISNVQSEDLADYFCQQYSSYLMYTFGGGTKLEIK |
| binds | MTK-211 (antibody, human IgG1, V domains shown) VH: QVQLQQSGAELMKPGASVKLSCKATGYTFTGYWIEWVKQRPGHGLEWIGEILPGSGGSNYNEKFKGKATFTADTSSNTAYIQLSSLTTEDSAIYCCARGEPSYFSDAGFAYWGQGTLVTVSA VL: QIVLTQSPAVMSASPGEKVTMTCSASSSITYMHWYQQKPGTSPKRWIYDTSKLASGVPARFSGSGSGTSYFLTISSMEAEDVATYYCHQRSTYPYTFGGGTKLEIM |
| binds | MTK-224 (antibody, human IgG1, V domains shown) VH: QVQLQQPGAELVKPGASVKVSCKASGYTFTSYWMHWVKQRPGQGLEWIGRIHPFDSDTNYNQKFKGKATLTVDKSSSTAYMQLSSLTSEDSAVYYCSIAGFAYWGQGTLVTVSA VL: DIVMTQSPATLSVTPGDRVSLSCRASQIISDYLNWYQQKSHESPRLLIKYASQSISGIPSRFSGSGSGSDFTLSINSVEPEDVGVYYCQNGHSFPLTFGAGTKLELK |
| binds | MTK-207 (antibody, human IgG1, V domains shown) VH: QVQLKESGPGLVAPSQSLSITCTVSGISLTSYGVSWVRQPPGKGLEWLGIIWGDGSTNYHSALISRLSISKDNSKSQVFLKLNSLQTDDTATYYCAKGRYGNYEDWYFDVWGTGTTVTVSS VL: DIQMTQSPASLSASVGETVTITCRASGNIHNYLAWYQQKQGKSPQLLVYNAKTLAAGVPSRFSGSGSGTQYSLKINSLQPEDFGSYYCQHFWSIPLTFGAGTKLELK |
| binds | MTK-214 (antibody, human IgG1, V domains shown) VH: QVQLQQPGAELVKPGASVKVSCKASGYTFTNYWMHWMKQRPGQGLEWIGRIHPFDSDTNYNEKFTDKATLTVDKSSSTAYMQLSSLTSEDSAVYYCAIGTLIYWGQGTTLTASS VL: DILLTQSPATLSVTPGETVSLSCRASQSIYKKLHWFQQRSHRSPRLLIKFASDSISGIPSRFTGSGSGTDYTLSINSVKPEDEAIYYCLQGYSTPLTFGAGTKLELK |

Biological target: T3, MerTK C-terminal ECD Half-and-half …
Test: SPR, construct supernatant over immobilised Ab
Procedure, shortened: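 Epitope domain mapping by SPR with antibody captured via amine coupling and construct supernatants as analyte (1:1 dilution, 0.5 mg/mL BSA in running buffer). Scoring relied on binding lost or gained across MerTK/Axl swaps.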

| binding result | Binder |
| --- | --- |
| no binding | MTK-218 (antibody, human IgG1, V domains shown) VH: QVQLQQSGPELVKPGTSVKISCKASGYSFTSYYIHWVKQRPGQGLDWIGWIFPGNRNTQYNEKFKGKATLTADTSSSTAYMQLSSLTSEDSAVYYCARLGLIYALDYWGQGTSVTVSS VL: DAVMTQTPLSLPVSLGDQASISCRSSQSLENSNGHTYLHWYLQKPGQSPQLLIYRVSNRFSGVQDRFSGSGSGTDFTLKISRVEAEDLGVYFCLQVTHVPFTFGSGTKLEIK |
| no binding | MTK-226 (antibody, human IgG1, V domains shown) VH: QVQLQQSGPELVKPGASVKISCKASGYSFTSYYIHWVKQRPGQGLEWIGWIFPGNGNTKYNENFRGKATLTADTSSSTAYMQLSSLTSEDSAVYYCARLGLIYALDYWGQGTSVTVSS VL: DAVMTQTPLSLPVSLGDQASISCRSSQSLESSNGNTYLHWYLQKPGQSPQLLIYRVSNRFSGVLDRFSGSGSGTDFTLQISRVEAEDLGVYFCLQVTHVPFTFGSGTKLEIK |
| no binding | MTK-223 (antibody, human IgG1, V domains shown) VH: DVQLQESGPGLVKPSQSLSLTCSVTGYSITSGYYWNWIRQFPGNKLEWMGYISYDGTNNYNPSLKNRISITRDTSENQFFLKLNSVTTEDTATYFCVRGAGYWGQGTTLTVSS VL: not shown |
| no binding | MTK-231 (antibody, human IgG1, V domains shown) VH: DVQLQESGPGLVKPSQSLSLTCSVTGYSITSGYYWNWIRQFPGNKLEWMGYISYDGTYNYHPSLKNRISITRDTSKNQFFLTLNSVTTEDTATFYCTRGGGYWGQGTSVTVSS VL: DVVMTQTPLSLPVSLGDQASISCRSSQSLVHSDGNTYLHWYLQKPGQSPKLLIYKVSNRFSGVPDRFSGSGSGTDFTLKISRLEAEDLGIYFCSQTTHIPLTFGSGTKLEIK |
| no binding | MTK-213 (antibody, human IgG1, V domains shown) VH: QVQLQQPGAELVKPGASVKMSCKASGYTFTSYWITWVKQRPGQGHEWIGEIYPGIGSTNYNEKFKSKATLTVDTSSRTAYMQLSSLTSEDSAVYFCARGAYTKYYFDYWGQGTTLTVSS VL: DIVMTQSHKFMSTSVGDRVSITCKASQDVGDAVAWYQQKPGQTPKLLIYWASTRHTGVPDRFTGSGSGTDFTLTISNVQSEDLADYFCQQYSSYLMYTFGGGTKLEIK |
| no binding | MTK-220 (antibody, V domains shown) VH: EVQLVESGGGLVKPGGSLKLSCAASGFTFSDYGMHWVRQAPEKGLEWVAFISGGSGTIYYEDTVKGRFTISRDNAKNTLFLQMTSLRSEDTAMYYCTRGGNYFDYWGQGTTLTVSS VL: NIMLTQSPSSLAVSAGEKVTMTCKSSQSVLYSSNQKNYLAWYQQKPGQSPKLLIYWASTRESGVPDRFTGSGSGTDFTLTISNVQAEDLAVYYCHQYFSSWTFGGGTKLEIK |
| no binding | MTK-204 (antibody, human IgG1, V domains shown) VH: EVQLVESGGGLVKPGGSLKLSCAASGFTFSDYGMHWVRQAPEKGLEWVAYISSGTSTIYYEDTVKGRFTISRDNAKNTLFLQMTSLRSEDTAMYYCARGGLLFDYWGQGTTLTVSS VL: NIMMTQSPSSLAVSAGEKVTMSCKSSQSVLYSSNQKNYLAWYQQKPGQSPKLLIQWASTRESGVPDRFTGSGSETDFTLTIRSVQAEDLAVYYCHQYFSSWTFGGGTKLEIK |
| no binding | MTK-202 (antibody, human IgG1, V domains shown) VH: EVQLVESGGGLVKPGGSLKLSCAASGFTFSDFGMHWVRQVPEKGLEWVAFISGGSNTIYYTDTVKGRFTISRDNAKNTLFLQMTSLRSEDTAMYYCVRNGNSFAYWGQGTLVTVSA VL: NIMMTQSPSSLAVSAGEKVTMNCKSSQSVLYSSNQKNYLAWYQQKPGQSPKLLIYWASTRESGVPDRFTGSGSGTDFTLTISNIQAEDLAIYYCHQYFFSWTFGGGTKLEIK |
| no binding | MTK-212 (antibody, human IgG1, V domains shown) VH: QVQLQQSGPELVKPGASVKISCKASGYAFSSSWVNWVKQRPGKGLEWIGRIYPGDGDSNYNGNFKGKATLTADKSSNTAYLQLSSLTSEDSAVYFCARKSHFIYYTLDYWGQGTPVTVSS VL: DIVMTQSHKFKSTSVGDRVSIACKASQDVGTSVAWYQQKPGKSPKLLIYWASSRHTGVPDRFTGSGSGTDFTLTISNVQSEDLTDYFCQQYSTYPYTFGGGTKLEIK |
| no binding | MTK-225 (antibody, human IgG1, V domains shown) VH: EVQLQQSGPELVKPGASVKIFCKASGYTFTAYNMDWVKQSHGKSLEWIGDINPNNGGTIYNQKFKGKATLTVDKSSSTAYMELRSLTSEDTAVYYCARRRRYGNTYYWYFDVWGTGTTVTVSS VL: DIQMTQSPASLSVSVGETVTITCRASENIYSSLAWYQQKQGKSPQLLVYAATNLADGVPSRFSGSGSGTQFYLKINGLQSEDFGSYYCQHFWGTSYTFGGGTKLEIK |
